Test results published in publication PMC6482012.

Molecular target: p62 (SQSTM1) (UniProt Q13501)
Assay: GST pulldown after in vitro AMPK reaction
Details: reference: WT GST-KHK-A without AMPK; sites S80

binding against the reference: stronger
Substance: KHK-A (fructokinase A, ketohexokinase A) (from UniProt P50053-2) WT GST-KHK-A incubated with active AMPK
